Ten molecules from patent publication US20250382376A1 (FUDAN UNIVERSITY, published 2025) can be followed below.

Assay [1] concerns the target T1, extracellular domain of human CD73 protein, C-terminus polyhistidine-tagged (human, UniProt P21589 27-547).
T1 construct: also the immunogen; also called CD73-ECD; human CD73-ECD
T1 sequence: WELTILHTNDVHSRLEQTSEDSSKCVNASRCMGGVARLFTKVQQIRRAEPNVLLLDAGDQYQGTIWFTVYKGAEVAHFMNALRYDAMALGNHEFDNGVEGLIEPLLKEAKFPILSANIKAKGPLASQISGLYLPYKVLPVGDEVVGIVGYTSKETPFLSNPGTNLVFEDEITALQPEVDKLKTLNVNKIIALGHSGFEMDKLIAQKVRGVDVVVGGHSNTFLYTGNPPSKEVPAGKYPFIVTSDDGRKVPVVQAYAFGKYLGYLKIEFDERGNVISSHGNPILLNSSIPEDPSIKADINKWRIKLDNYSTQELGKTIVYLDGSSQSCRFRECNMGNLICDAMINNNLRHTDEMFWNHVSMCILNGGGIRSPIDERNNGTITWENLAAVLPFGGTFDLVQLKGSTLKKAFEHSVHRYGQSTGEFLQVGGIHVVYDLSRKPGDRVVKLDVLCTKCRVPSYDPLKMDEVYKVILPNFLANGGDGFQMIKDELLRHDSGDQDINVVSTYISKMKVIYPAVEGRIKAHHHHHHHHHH
The experiment in a line: ELISA on human CD73-ECD, 1 µL supernatant of transfected HEK293F cells; PBS blank 0.073. The protocol: (§1) The CD73 protein extracellular region (CD73-ECD) was diluted to 1 μg/mL using the coating solution, and an ELISA plate was coated at 100 μL/well at 4° C. overnight. Excess antigens were washed away, and the plate was blocked with 1% BSA at room temperature for 2 hours. Then, 5-fold gradient dilutions of each monoclonal antibody were added at 100 μL/well and incubated at room temperature for 1 hour. Unbound antibodies were washed away, and an appropriate concentration of Staphylococcal protein A labeled with horseradish peroxidase was added at 100 μL/well and incubated at room temperature for 0.5 hours. Unbound secondary antibodies were washed away, and TMB color development solution was added to react for about 15 minutes. 1M HCL was added at 50 µL/well to terminate the color development reaction, and then the absorbance was measured at 450 nm and the data was analyzed.
(§2) For the five antibodies from yeast, after transient expression in HEK293F cells, the supernatant was collected after 2 days of continuous culture and ELISA assay was performed using 100 μL, 10 μL, and 1 μL of the supernatant.
A general note: ELISA stands for enzyme-linked immunosorbent assay.

The target of assay [2] is T1, extracellular domain of human CD73 …. The experiment in a line: ELISA on human CD73-ECD, 10 µL supernatant of transfected HEK293F cells; PBS blank 0.0615. As to the method: as §1, §2
The target is the same in assay [3]. The experiment in a line: ELISA on human CD73-ECD, 100 µL supernatant of transfected HEK293F cells; PBS blank 0.0675. As to the method: as §1, §2
Assay [4] shares this target. The assay is described as follows: ELISA on CD73-ECD, 4 µL supernatant of antibody expression, first of two readings; PBS 0.19, 0.18. As to the method: as §1
(§3) CD73 antigen ELISA binding affinity test was performed according to the method of Example 3.

The target is the same in assay [5]. The assay is described as follows: ELISA on CD73-ECD, 20 µL supernatant of antibody expression, first of two readings; PBS 0.19, 0.18. The protocol: as §1, §3
The target is the same in assay [6]. The assay is described as follows: ELISA on CD73-ECD, 4 µL supernatant of antibody expression, second of two readings; PBS 0.19, 0.18.
Assay [7] has the same target. The assay is described as follows: ELISA on CD73-ECD, 0.8 µL supernatant of antibody expression, first of two readings; PBS 0.19, 0.18. As to the method: as §1, §3
For assay [8] the target is unchanged. The assay is described as follows: ELISA on CD73-ECD, 100 µL supernatant of antibody expression, first of two readings; PBS 0.19, 0.18. The protocol: as §1, §3
The target is the same in assay [9]. The assay is described as follows: ELISA on CD73-ECD, 20 µL supernatant of antibody expression, second of two readings; PBS 0.19, 0.18. The protocol: as §1, §3
For assay [10] the target is unchanged. The assay is described as follows: ELISA on CD73-ECD, 0.8 µL supernatant of antibody expression, second of two readings; PBS 0.19, 0.18. The protocol: as §1, §3
For assay [11] the target is unchanged. The assay is described as follows: ELISA on CD73-ECD, 100 µL supernatant of antibody expression, second of two readings; PBS 0.19, 0.18.
Assay [12] concerns the target T2, CD73 on the surface of human cells (human, UniProt P21589 27-549).
T2 sequence (looked up): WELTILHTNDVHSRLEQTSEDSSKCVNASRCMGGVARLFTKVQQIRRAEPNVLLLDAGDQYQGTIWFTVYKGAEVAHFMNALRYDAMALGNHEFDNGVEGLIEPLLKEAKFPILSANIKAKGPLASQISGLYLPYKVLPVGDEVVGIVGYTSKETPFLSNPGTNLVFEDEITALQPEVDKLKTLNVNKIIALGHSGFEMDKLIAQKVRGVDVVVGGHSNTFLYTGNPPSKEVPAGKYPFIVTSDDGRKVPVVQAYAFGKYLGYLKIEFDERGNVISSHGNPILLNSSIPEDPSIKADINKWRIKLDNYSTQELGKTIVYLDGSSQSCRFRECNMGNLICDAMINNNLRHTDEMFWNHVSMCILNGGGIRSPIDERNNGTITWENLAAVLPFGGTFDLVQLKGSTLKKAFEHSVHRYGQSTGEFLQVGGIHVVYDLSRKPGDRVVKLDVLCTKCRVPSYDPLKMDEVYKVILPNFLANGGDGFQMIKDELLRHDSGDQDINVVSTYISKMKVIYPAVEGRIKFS
The experiment in a line: cell-based or functional assay.

B1: chimeric nanobody 3-A3 (Fc fusion)
VHH: QVQLVESGGGSVQPGGSLRLSCAASGFPLDYYTIGWFRQAPGKELEGVSCISSSDSSPYDADSVKGRFTMSRDNANNTVYLQMNSLKPEDTAVYYCAAQRYYYCSLRANVYDYWGQGTQVTVSS
notes: Tested as supernatant of transiently transfected HEK293F cells
For the molecule B1, the “ELISA (OD450)” value turned out to be 0.605 OD450 in assay [1], 2.11 OD450 in assay [2] and 4.27 OD450 in [3].

B2: chimeric nanobody 2-G9 (Fc fusion)
VHH: QLQLVESGGGLVQPGGSLRLSCAASGFLLDYYTIGWFRQAPGKELEGVSCISSSDSSPYDADSVKGRFTMSRDNANNTVYLQMNSLKPEDTAVYYCAAQRYYYCALRANVYDYWGQGTQVTVST
notes: as for B1
As for B2, the “ELISA (OD450)” value in assay [1] was found to be 0.924 OD450; in assay [2] it was 3.35 OD450; in assay [3], 4.41 OD450.

B3: chimeric nanobody 3-F1 (Fc fusion)
VHH: QVQLVESGVSLVQPGGSLRLSCAASGFTLDYYTIGWFRQAPGKELEGISCIRSSDSSPYDADSVKDRFTMSRDNANNTVYLQMNSLKPEDTADYYCAAQRYYYCSLTANVYDYWGQGTQVTVSS
notes: as for B1
In the case of B3, the “ELISA (OD450)” value in [1] worked out at 0.143 OD450; in assay [2], 1.11 OD450; in assay [3], 3.01 OD450.

B4: 5-E11 derived antibody 5-E11AS (VHH, not shown: a dimerising Fc or GST)
VHH: ALQLVESGGGLVQPGGSLRLSCEVSGFTLDYYNIGWFRQAPGKEREGVSCSSASGGSTYYADSVKGRFTISRDNAKNTVYLQMNSLKPEDTGVYYCAAYRGWHPSLDARVYDYWGQGTEVTVSS
Take B4: the “ELISA reading (not named on the sheet)” value in assay [4] came out at 4.25; in assay [5], 4.24; in [6] it was 4.22; in assay [7], 4.22; in assay [8], 4.28; in assay [9], 4.33. Further, the “ELISA reading (not named on the sheet)” value turned out to be 4.08 in assay [10] and 4.27 in assay [11].

B5: chimeric nanobody 1-E7 (Fc fusion)
VHH: QVQLVESGGGLVQPGGSLRLSCAASGFTLDYYNIGWFRQAPGKEREGVSCISNSDGSTYYADSVKGRFTISRDNAKNTVYLQMNSLKPEDTAVYYCAAYRGWHPSLDARVYDYWGQGTQVTVSS
notes: as for B1
Consider B5, for which the “ELISA (OD450)” value worked out at 0.36 OD450 in assay [1], 1.61 OD450 in [2] and 4.11 OD450 in [3].

B6: 5-E11 derived antibody 5-E11GS (VHH, not shown: a dimerising Fc or GST)
VHH: ALQLVESGGGLVQPGGSLRLSCEVSGFTLDYYNIGWFRQAPGKEREGVSCSSGSGGSTYYADSVKGRFTISRDNAKNTVYLQMNSLKPEDTGVYYCAAYRGWHPSLDARVYDYWGQGTEVTVSS
For B6, the “ELISA reading (not named on the sheet)” value turned out to be 4.22 in [4]; 4.15 in assay [5]; 4.17 in assay [6]; 4.16 in assay [7]; 4.24 in [8]; 4.3 in assay [9]. For the same molecule, the “ELISA reading (not named on the sheet)” value in assay [10] was 4.11; in assay [11], 4.22.

B7: 5-E11 derived antibody 5-E11QS (VHH, not shown: a dimerising Fc or GST)
VHH: ALQLVESGGGLVQPGGSLRLSCEVSGFTLDYYNIGWFRQAPGKEREGVSCSSQSGGSTYYADSVKGRFTISRDNAKNTVYLQMNSLKPEDTGVYYCAAYRGWHPSLDARVYDYWGQGTEVTVSS
As to B7, the “ELISA reading (not named on the sheet)” value came to 4.23 in assay [4]; 4.17 in assay [5]; 4.16 in assay [6]; 4.17 in assay [7]; 4.32 in assay [8]; 4.29 in [9]. Also, the “ELISA reading (not named on the sheet)” value in assay [10] worked out at 4.08; in assay [11] it was 4.28.

B8: chimeric nanobody 2-B10 (Fc fusion)
VHH: QLQLVESGGGLVQPGGSLRLSCAASGFTLDDNAIGWFRQAPGKEREGVACMRTSDGDTYYADSVKGRFTISRDNAKNTMYLQMNSLKPEDTAVYYCAAALGTYYSGFYYLAGDGMDYWGKGTLVTVSS
notes: as for B1
B8: the results for the “ELISA (OD450)” value in assay [1], in assay [2] and in assay [3] were 0.254 OD450, 1.28 OD450 and 4.46 OD450, respectively.

B9: humanized nanobody-drug conjugate 3D7-HM9-FC1-MMAE (Fc fusion, part only; not given: Fc segment and drug payload, part only)
VHH, part: QRQLVESGGGLVQPGGSLRLSCAASGFLLDYYVIGWFRQAPGKEREGVSCISGSDRSTYYADSVKGRFTISRDNAKNTVYLQMSSLRAEDTAVYYCAADPSPVTVQAMCLPRFPVPYWGKGTLVTVSS
modifications: vc-MMAE on cysteines; expected DAR 4 for the dimer
As for B9, the EC50, reversal of the AMP inhibition of human T lymphocyte proliferation in [12] came to 0.0197 µg/mL.

B10: humanized antibody fusion protein 3D7-HM9-ABD (VHH)
VHH: QRQLVESGGGLVQPGGSLRLSCAASGFLLDYYVIGWFRQAPGKEREGVSCISGSDRSTYYADSVKGRFTISRDNAKNTVYLQMSSLRAEDTAVYYCAADPSPVTVQAMCLPRFPVPYWGKGTLVTVSS
For the molecule B10, in assay [12], the “EC50, reversal of the AMP inhibition of human T lymphocyte proliferation” value was 0.0467 µg/mL and the “IC50, inhibition of the catalytic function of CD73 enzyme on MDA-MB-231 cells” value was 0.123 µg/mL.
